Experimental data: doi:10.1101/2023.01.10.523378
Several values for one entry are separate records, joined by “and”; a condition that tells them apart may be missing. Equal values may be shown once.

Assays:
[1] = target: rat CaMKIIα holoenzyme (apo, nonphosphorylated) (rat) (UniProt P11275); assay: high-speed atomic force microscopy
[2] = target: rat CaMKIIα holoenzyme phosphorylated at Thr286 (rat) (UniProt P11275); assay: high-speed atomic force microscopy

fraction of Ca2+/CaM bound longer than 60 s [1] | fraction of Ca2+/CaM bound longer than 60 s [2] | stoichiometry N [1] | Substance
41.1% | 77.3% |  | Ca2+/calmodulin (from UniProt P0DP23 1-149) (natural protein)
 |  | 12 and 14 | rat CaMKIIα holoenzyme (apo, nonphosphorylated) (from UniProt P11275 1-478)
